B1: Hairpin Ribozyme (parent)
chain: GUCCUCUUUCACGUGCGCGUGAAAGAGAGAAGUGAACCAGAGAAACACACGUUGUGGUAUAUUACCUGGUA

Variants of: B1
Test: self-cleavage, relative activity (ratio to wild type); higher = more cleavage; co-transcriptional

Row | Variant | self-cleavage
1 | GUCCUCUUUCACGUGCGCGUGAAAGAGAGAAGUGAACCAGAGAAACACACGUGGUGGUAUAUUACCGGGUA | 0.119
2 | GUCCUCUUUCACGUGCGCGUGAAAGAUAGAAGUGAACCAGAGAAACACACGUUGUGCUAUAUUACCUGGUA | 0.159
3 | GUCCUCUUUCACGUGCGCGUGAAAGAGAGUAGUGAACCAGAGAAACCCACGUUGUGGUAUAUUACCUGGUA | 0.0639
4 | GUCCUCUUUCACGUGCGCGUGAAAGGGAGAAGUGAACCAGAGAAACACACGUUGUGGUAUAUUAUCUGGUA | 0.311
5 | GUCCUCUUUCACGUGGGCGGGAAAGAGAGAAGUGAACCAGAGAAACACACGUUGUGGUAUAUUACCUGGUA | 0.661
6 | GUCCUCUUUCACGUGCGCGAGAAAGAGAGAAGUGAACCAGAGAAACACACGUUGUGGUAUAUUACCUGUUA | 0.252
7 | GUCCUCUUUCACGUGCGCGUGAAAGAGAGAAGUGAACCAGAGAAACACACGUUGUGGUAUAUUAGCUGGUG | 0.187
8 | GUCCUCUUUCACGUACGCGUGAAAGAGAGAAGUGAACCAGAGAAACACUCGUUGUGGUAUAUUACCUGGUA | 0.149
9 | GUCCUCUUUCACGUGCGCGUGAAAGAGAGAAGUGAACCAGAGAAACACACGUUGGCGUAUAUUACCUGGUA | 0.107
10 | GUCCUCUUUCACGUGCGCGUUAAAGAGAGAAGUGAACCAGAGAAACACACGUUGUGGUAUAUUUCCUGGUA | 0.113
11 | GACCUCGUUCACGUGCGCGUGAAAGAGAGAAGUGAACCAGAGAAACACACGUUGUGGUAUAUUACCUGGUA | 0.197
12 | GUCCUCUUUCACGUGCGCGUGAAAGAGAGAAUUGAACCAGAGAAACACACGUUGUGGUCUAUUACCUGGUA | 0.0899
13 | GGCCUCUUUCACGUGCGCGUGAAAGAGAGAAGUGAACCAGAGAAACACACGUUGGGGUAUAUUACCUGGUA | 0.367
14 | GUCCUCUUUCACGUGCGCGUGAAAGAGAGAAUUUAACCAGAGAAACACACGUUGUGGUAUAUUACCUGGUA | 0.126
15 | GUCCUCUUUCACGUGCGCGUGAAGGAGAGAAGUGAACCAGAGAAACACACGUUGUGGUAUAUUGCCUGGUA | 0.533
16 | GUCCUCUUUCACGUGCGCGUGAAAGAUAGAAGUGAACCAGAGAUACACACGUUGUGGUAUAUUACCUGGUA | 0.169
17 | GUCCUCUUUCACGUGCGCGUGAAAGAGAGAAGUGAACCAGAGAAACACACGUUGUGGUAUAAUACCUGGGA | 0.16
18 | GUCCUCUUUCACGUGCGCGUGAAAGAGAGAAGACAACCAGAGAAACACACGUUGUGGUAUAUUACCUGGUA | 0.777
19 | GUCCUCUUUCACGUGCGCUUGAAAGAGAGAAGUGAACCAGAGAAACACACGAUGUGGUAUAUUACCUGGUA | 0.881
20 | GUCCUCUUUCACGUGCGCGUGAAAGAGAGAAGUGAACAAGAGAAACACACGUUGUGGUAUAGUACCUGGUA | 0.139
21 | GUCCGCUUUCACGUGCGCGUGAAAGAGAGAAGUGAACCAGAGAAACACACGUUGUUGUAUAUUACCUGGUA | 0.125
22 | GUCCUCUUUCACUUGCGCGUGAAAGAGAGAAGUGAACCAGAGAAACACACGUUGUGCUAUAUUACCUGGUA | 0.173
23 | GUCCUCUUUCACGUGCGCGUGAAAGAGAGAAGUGAACCAGAGAAACACACGUUGUGGUAGAUUACCUGGUA | 0.615
24 | GUCCUCUUUCACGUGCUCGUGAAAGAGAGAAGUGAACCAGAGAAACGCACGUUGUGGUAUAUUACCUGGUA | 0.15
25 | GUCCUCUUUCACGUGCGCGUGAAAUAGAGAAGUGAACCAGAGAAACACACGUUGUGGUAUAUUGCCUGGUA | 0.428
26 | GUCCUCUUUCACGUGCGCGUGAAAGAGAGAAGUGAACCAGAGAAACACACGUUGUGGUAAAUUACAUGGUA | 0.365

Row | Variant | self-cleavage
27 | GUCCUCUUUCACGUGCGCGUGAAAGAGAGAAGGGAACCAGAGAAACACACGUUGUGGUCUAUUACCUGGUA | 0.139
28 | GUCCUCUUUCACGUGCGCGUGAAAGAGAGAAGUGAACCAGAGAAACACACAUUGUGGUAAAUUACCUGGUA | 1.18
29 | AUCCUCUUUCACGUGCGCGUCAAAGAGAGAAGUGAACCAGAGAAACACACGUUGUGGUAUAUUACCUGGUA | 0.119
30 | GUCCUCUUUCACGUGCGCGUGAAAGAGAAAAGUGUACCAGAGAAACACACGUUGUGGUAUAUUACCUGGUA | 0.0646
31 | GUCCUCUUUCACGUGCGCGUGAAAGAGAGAAGUGAACCCGAGAAACUCACGUUGUGGUAUAUUACCUGGUA | 0.151
32 | GUCCUCUUUCACGUGAGCGUGAAAGAGAGAAGUGAACCAGAAAAACACACGUUGUGGUAUAUUACCUGGUA | 0.366
33 | GUCCUCUUUAACGGGCGCGUGAAAGAGAGAAGUGAACCAGAGAAACACACGUUGUGGUAUAUUACCUGGUA | 0.632
34 | GUCCUCUUUCACGUGCGCGUGAAAGAUAGAAGUGAACCAGAGAAACACACGUUGUGGUAUAUUACCUGGAA | 0.172
35 | GUCCUCUUUCAUGUGCGCGUGAAAGAGAGACGUGAACCAGAGAAACACACGUUGUGGUAUAUUACCUGGUA | 0.204
36 | GUCCUCUUUCACGUGCGCGUGAAAGAGAGAAGUGAACCAGAGAAACACACGUUGUGGUGUAUUACCUGGUC | 0.444
37 | GUCCUCUUUCACGUGCGCGUGAAAGAGAGAAGUGAACCAGGGAUACACACGUUGUGGUAUAUUACCUGGUA | 0.185
38 | GUUCUCUUUCACGUGCGCGUGAAAGAGACAAGUGAACCAGAGAAACACACGUUGUGGUAUAUUACCUGGUA | 0.106
39 | GUCCUCUUUCACGUGCGUGUGAAAGAGAGAAGUGAACCAGAGACACACACGUUGUGGUAUAUUACCUGGUA | 0.146
40 | GUCCUCUUUAACGUGCGCGUGAAAGAGAGAAGUGAACCAGAGAAACACACGUUGUGGUAUAUUACCUAGUA | 0.177
41 | UUUCUCUUUCACGUGCGCGUGAAAGAGAGAAGUGAACCAGAGAAACACACGUUGUGGUAUAUUACCUGGUA | 0.255
42 | GUCCUCUUUCACGUGCGCGUGAAAUAGAAAAGUGAACCAGAGAAACACACGUUGUGGUAUAUUACCUGGUA | 0.149
43 | GGUCUCUUUCACGUGCGCGUGAAAGAGAGAAGUGAACCAGAGAAACACACGUUGUGGUAUAUUACCUGGUA | 0.181
44 | GUCCUCUUUCACGUUCGCGUGAAAGAGAGAAGUGAACCAGAGAAACACACGUUGUGAUAUAUUACCUGGUA | 0.153
45 | GUCCUCUUUCACGUGCGCGCGAAAGAGAGAAGUGAACCAGAGAAACACACGUUGUUGUAUAUUACCUGGUA | 0.215
46 | GUCCUCUUUCACGUGCGCGUGAAAGAGAGAAGUGAACCAGAGAAACACACGUUGUGGUAUAUUAGCUGGUU | 0.219
47 | GUCCCCUUUCACGUGCGCGUGAAAGAGAGAAGUGAACCAGAGAAACACACGUUGUUGUAUAUUACCUGGUA | 0.128
48 | GUCCUCUUUCACGUGCGCGUCAAAGAGAGAAGUGAACCAGAGAAACACACGUUGUGGUAUAUUUCCUGGUA | 0.0998
49 | GUCCUCUUUCACGUGCGCGUGAAAGAGAGAAGUGGACCAGAGAAACACACGUUCUGGUAUAUUACCUGGUA | 0.444
50 | GUCCUCUUUCCCGUGCGCGUGAAAGAGAGAGGUGAACCAGAGAAACACACGUUGUGGUAUAUUACCUGGUA | 0.437
51 | GCCCUCUUUCACGUGCGCGUGAAAGAGAGAAGUGAACCAGAGAAACACACGUUGUGCUAUAUUACCUGGUA | 0.242
52 | GACCUCUUUCACGUGCGCGUGAAAGAGAGAAGUGAACCAGAGAAACACACGUUGUGGUAUAGUACCUGGUA | 0.088

Row | Variant | self-cleavage
53 | GUCCUCUUUCACGUGCGCGUGAAAGAGAGAAGUGAACAAGAGAAACACACGUUGGGGUAUAUUACCUGGUA | 0.183
54 | GUCCUCUUUCACGUGCGCGUGAAAGAGAGAAGUGAACCACAGAAACACACGUUGUGGUAGAUUACCUGGUA | 0.102
55 | GUCCUCUUUCACGUGCGAGUGACAGAGAGAAGUGAACCAGAGAAACACACGUUGUGGUAUAUUACCUGGUA | 0.863
56 | GUCCUCUUUCACGUUCGCGUGAAAGAGAGAAGUGAACCAGAGAAACACACGUUGUGGUAUAUAACCUGGUA | 0.164
57 | GUCCUCUUUCACGUGCGAGUGGAAGAGAGAAGUGAACCAGAGAAACACACGUUGUGGUAUAUUACCUGGUA | 0.857
58 | GUCCUCUUUCACGAGCGCGUGAAAGAGAGAUGUGAACCAGAGAAACACACGUUGUGGUAUAUUACCUGGUA | 0.124
59 | GUCCUGUUUCACGUGCGCGUGAAAGAGAGAAGUGAACCAGAGAAACACACGUUGUGGUAUAUUUCCUGGUA | 0.105
60 | GUCCUCUUUCACGUGCGAGUGAAAGAGAGAAGUGAACCAGAGAAACACACAUUGUGGUAUAUUACCUGGUA | 1.01
61 | GUCCUCUUUCACUUGCGCGUCAAAGAGAGAAGUGAACCAGAGAAACACACGUUGUGGUAUAUUACCUGGUA | 0.431
62 | GUCCUCUUUCACGUGCGCGUGAAAGAGAGAAGUGAACAAGAGCAACACACGUUGUGGUAUAUUACCUGGUA | 0.0755
63 | GUCCUCUUUCACGUGUGCGUGAAAGAGAGAAGUGAACCAGAGAAACACACGAUGUGGUAUAUUACCUGGUA | 1.01
64 | GUCCUCUUUCACGUGCUCGUGAAAGAGAGAAGUGAACCAGAGAAACACACGUUGUGGUAUAUUACCUGGUG | 1.1
65 | GUCCUCUUUCACGUGCGCGUGAAAGAGAGAAGUGAACCAGCAAAACACACGUUGUGGUAUAUUACCUGGUA | 0.805
66 | GUUCUCUUUCACGUGCGCGUGAAAGAGAGAAGUGAACCAGAGAAACACACGUUGUGGUAUAUUACCUGAUA | 0.16
67 | GUCCUCUUUCACGUGCGCGUGAAAGAGAGAAGUGAACCAGAGAAACACAAGUUGUGGUAUCUUACCUGGUA | 0.173
68 | GUCCUCUUUCACGUGUGCGUGAAAGAGAGAAGUGAACCAGAGAAACACAAGUUGUGGUAUAUUACCUGGUA | 0.295
69 | GUACUCUUUCAAGUGCGCGUGAAAGAGAGAAGUGAACCAGAGAAACACACGUUGUGGUAUAUUACCUGGUA | 0.603
70 | GUCCUCUUUCACGUGCGCGUGAAAGAGAGAGGUGAACCAGAGAAACACACGUUGUGGUAUUUUACCUGGUA | 0.159
71 | GUCCUCUCUCACGUGCGCGUGAAAGAGAGAAGUGAACCAGACAAACACACGUUGUGGUAUAUUACCUGGUA | 0.187
72 | GUCCUGUUUCACGUGCGCGUGAAAGAGAGAAGUGAACCAGAGAAACUCACGUUGUGGUAUAUUACCUGGUA | 0.13
73 | GUCCUCUUUCACGUGCUCGUGAAAGAGAGAAGUGAACCAGAGAAACACACGUUGUGGUAUAUUGCCUGGUA | 0.624
74 | GUCCUCUUUCACGUGCGCGUGAAAGAGAGAAGUGAACCUGAGAAACACACGUUGUGGUAUUUUACCUGGUA | 0.125
75 | GUCCUCUUUCACGUGCGCGUGAAACAGAGAAGUGAACCAGAGAAACACACGUUGUGGUAUAUUACCUGGUC | 1.02
76 | GUCCUCUUUCACGUGCGCGUGAAAGAGAGAAGUGAAACAGAGAAACACACGGUGUGGUAUAUUACCUGGUA | 0.224

From the RNAGym collection of RNA variant scans (doi:10.7554/elife.80360)
